This note sets out measurements from patent US20250313602A1.

This test concerns the target FcRn. In words: BLI.

pKd: −log10 of the molar value. Values joined by “and” are separate entries in the source; they are usually repeats but may differ in a detail not shown here. Equal entries are not always repeated.

FcRn, sequence (main, as listed by the source, chain 1 of 2): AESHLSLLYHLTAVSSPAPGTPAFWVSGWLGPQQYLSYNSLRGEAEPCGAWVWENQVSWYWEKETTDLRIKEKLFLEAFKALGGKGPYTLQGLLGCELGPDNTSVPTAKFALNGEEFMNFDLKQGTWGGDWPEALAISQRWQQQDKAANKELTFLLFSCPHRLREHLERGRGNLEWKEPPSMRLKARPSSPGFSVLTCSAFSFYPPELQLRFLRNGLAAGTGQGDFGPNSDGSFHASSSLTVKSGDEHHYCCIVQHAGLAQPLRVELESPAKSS
FcRn, sequence (main, as listed by the source, chain 2 of 2): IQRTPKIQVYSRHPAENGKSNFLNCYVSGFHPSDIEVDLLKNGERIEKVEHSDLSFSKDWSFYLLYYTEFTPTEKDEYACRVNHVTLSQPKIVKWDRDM

One may read the pKd as the Kd on a negative log10 scale, so that one unit is a factor of ten. The low end stands for a large Kd, the high end for a small Kd. As for Herceptin, the pKd was 8.55 and 8.90.
